B1: 032216-Y07 (protein)
chain: MALPVTALLLPLALLLHAARPDIVMTQSHKFMSTSVGDRVSVTCKASQNVGNNVAWYQQKPGQSPKVLIYSASYRYSGVPDRFTGSGSGTDFTLTISNVQSEDLAEYFCQQYNTYPFTFGSGTKLEIKLEGKPIPNPLLGLDSTGSGEDLKNVFPPEVAVFEPSKAEIAHTQKATLVCLATGFYPDHVELSWWVNGKEVHSGVCTDPQPLKEQPALNDSRYCLSSRLRVSATFWQNPRNHFRCQVQFYGLSENDEWTQDRAKPVTQIVSAEAWGRADCGITSASYHQGVLSATILYEILLGKATLYAVLVSALVLMAMVKRKDSRGRAKRSGSGATNFSLLKQAGDVEENPGPTSMDWIWRILFLVGAATGAHSFEEVQLEESGGGLVQPGGSMKLSCVASGFTFSNYWMNWVRQSPEKGLEWVAEIRFKSHNYATHFAESVKGRFTISRDDSKSSVYLQMNNLRAEDTGIYYCTRRIGNSDYDWWYFDVWGAGTSVTVSSASTREQKLISEEDGSGIQNPDPAVYQLRDSKSSDKSVCLFTDFDSQTNVSQSKDSDVYITDKCVLDMRSMDFKSNSAVAWSNKSDFACANAFNNSIIPEDTFFPSSDVPCDVKLVEKSFETDTNLNFQNLSVIGFRILLLKVAGFNLLMTLRLWSSRAKRSGSGVKQTLNFDLLKLAGDVESNPGPSRGHMTEYKPTVRLATRDDVPRAVRTLAAAFADYPATRHTVDPDRHIERVTELQELFLTRVGLDIGKVWVADDGAAVAVWTTPESVEAGAVFAEIGPRMAELSGSRLAAQQQMEGLLAPHRPKEPAWFLATVGVSPDHQGKGLGSAVVLPGVEAAERAGVPAFLETSAPRNLPFYERLGFTVTADVEVPEGPRTWCMTRKPGA
modifications: Polynucleotide encoding a Synthetic Immune Receptor (SIR)
B2: 083016-B06 (protein)
chain: MALPVTALLLPLALLLHAARPLEGKPIPNPLLGLDSTGSGEDLKNVFPPEVAVFEPSKAEIAHTQKATLVCLATGFYPDHVELSWWVNGKEVHSGVCTDPQPLKEQPALNDSRYCLSSRLRVSATFWQNPRNHFRCQVQFYGLSENDEWTQDRAKPVTQIVSAEAWGRADCGITSASYHQGVLSATILYEILLGKATLYAVLVSALVLMAMVKRKDSRGRAKRSGSGATNFSLLKQAGDVEENPGPTSMALPVTALLLPLALLLHAARPDIVMTQSHKFMSTSVGDRVSVTCKASQNVGNNVAWYQQKPGQSPKVLIYSASYRYSGVPDRFTGSGSGTDFTLTISNVQSEDLAEYFCQQYNTYPFTFGSGTKLEIKGGGGSGGGGSGGGGSEVQLEESGGGLVQPGGSMKLSCVASGFTFSNYWMNWVRQSPEKGLEWVAEIRFKSHNYATHFAESVKGRFTISRDDSKSSVYLQMNNLRAEDTGIYYCTRRIGNSDYDWWYFDVWGAGTSVTVSSASTREQKLISEEDLGSGTPFPSLAPPIMLLVDGKQQMVVVCLVLDVAPPGLDSPIWFSAGNGSALDAFTYGPSPATDGTWTNLAHLSLPSEELASWEPLVCHTGPGAEGHSRSTQPMHLSGEASTARTCPQEPLRGTPGGALWLGVLRLLLFKLLLFDLLLTCSCLCDPAGPLPSPATTTRLRALGSHRLHPATETGGREATSSPRPQPRDRRWGDTPPGRKPGSPVRAKRSGSGVKQTLNFDLLKLAGDVESNPGPSRSRGHMTEYKPTVRLATRDDVPRAVRTLAAAFADYPATRHTVDPDRHIERVTELQELFLTRVGLDIGKVWVADDGAAVAVWTTPESVEAGAVFAEIGPRMAELSGSRLAAQQQMEGLLAPHRPKEPAWFLATVGVSPDHQGKGLGSAVVLPGVEAAERAGVPAFLETSAPRNLPFYERLGFTVTADVEVPEGPRTWCMTRKPGA
modifications: Polynucleotide encoding a Synthetic Immune Receptor (SIR)
B3: 090116-K02 (protein)
chain: MALPVTALLLPLALLLHAARPLEGKPIPNPLLGLDSTGSGEDLKNVFPPEVAVFEPSKAEIAHTQKATLVCLATGFYPDHVELSWWVNGKEVHSGVCTDPQPLKEQPALNDSRYCLSSRLRVSATFWQNPRNHFRCQVQFYGLSENDEWTQDRAKPVTQIVSAEAWGRADCGITSASYHQGVLSATILYEILLGKATLYAVLVSALVLMAMVKRKDSRGRAKRSGSGATNFSLLKQAGDVEENPGPTSMALPVTALLLPLALLLHAARPDIVMTQSHKFMSTSVGDRVSVTCKASQNVGNNVAWYQQKPGQSPKVLIYSASYRYSGVPDRFTGSGSGTDFTLTISNVQSEDLAEYFCQQYNTYPFTFGSGTKLEIKGGGGSGGGGSGGGGSEVQLEESGGGLVQPGGSMKLSCVASGFTFSNYWMNWVRQSPEKGLEWVAEIRFKSHNYATHFAESVKGRFTISRDDSKSSVYLQMNNLRAEDTGIYYCTRRIGNSDYDWWYFDVWGAGTSVTVSSASTREQKLISEEDGSGIQNPDPAVYQLRDSKSSDKSVCLFTDFDSQTNVSQSKDSDVYITDKCVLDMRSMDFKSNSAVAWSNKSDFACANAFNNSIIPEDTFFPSSDVPCDVKLVEKSFETDTNLNFQNLSVIGFRILLLKVAGFNLLMTLRLWSSRAKRSGSGVKQTLNFDLLKLAGDVESNPGPSRGHMTEYKPTVRLATRDDVPRAVRTLAAAFADYPATRHTVDPDRHIERVTELQELFLTRVGLDIGKVWVADDGAAVAVWTTPESVEAGAVFAEIGPRMAELSGSRLAAQQQMEGLLAPHRPKEPAWFLATVGVSPDHQGKGLGSAVVLPGVEAAERAGVPAFLETSAPRNLPFYERLGFTVTADVEVPEGPRTWCMTRKPGA
modifications: Synthetic Immune Receptor (SIR)
B4: 110116-J04 (protein)
chain: MALPVTALLLPLALLLHAARPLEQKLISEEDLGSGDRPDPAVYQLRDSKSSDKSVCLFTDFDSQTNVSQSKDSDVYITDKCVLDMRSMDFKSNSAVAWSNKSDFACANAFNNSIIPEDTFFPSPESSCDVKLVEKSFETDTNLNFQNLSVIGFRILLLKVAGFNLLMTLRLWSSSSRAKRSGSGVKQTLNFDLLKLAGDVESNPGPTSMALPVTALLLPLALLLHAARPDIQMTQSPASLSASVGETVTIICRASVNIYSYLAWYQQKQGKSPQLLVYNAKILAEGVPSRFSGSGSGTQFSLKINSLQPEDFGSYYCQHHYGTFTFGSGTKLEIKRGGGGSGGGGSGGGGSQVQLKESGPGLVAPSQSLSITCTISGFSLTSYGVHWVRQPPGKGLEWLVVIWSDGSTTYNSALKSRLSISKDNSKSQVFLKMNSLQTDDTAIYYCASHYGSTLAFASWGHGTLVTVSAATRGKPIPNPLLGLDSTGSGEDLKNVFPPEVAVFEPSEAEISHTQKATLVCLATGFYPDHVELSWWVNGKEVHSGVCTDPQPLKEQPALNDSRYCLSSRLRVSATFWQNPRNHFRCQVQFYGLSENDEWTQDRAKPVTQIVSAEAWGRADCGFTSESYQQGVLSATILYEILLGKATLYAVLVSALVLMAMVKRKDSRGRAKRSGSGATNFSLLKQAGDVEENPGPSRGHMTEYKPTVRLATRDDVPRAVRTLAAAFADYPATRHTVDPDRHIERVTELQELFLTRVGLDIGKVWVADDGAAVAVWTTPESVEAGAVFAEIGPRMAELSGSRLAAQQQMEGLLAPHRPKEPAWFLATVGVSPDHQGKGLGSAVVLPGVEAAERAGVPAFLETSAPRNLPFYERLGFTVTADVEVPEGPRTWCMTRKPGA
modifications: Synthetic Immune Receptor (SIR)
B5: 041416-N03 (protein)
chain: MALPVTALLLPLALLLHAARPDIVMTQSHKFMSTSVGDRVSVTCKASQNVGNNVAWYQQKPGQSPKVLIYSASYRYSGVPDRFTGSGSGTDFTLTISNVQSEDLAEYFCQQYNTYPFTFGSGTKLEIKLEGKPIPNPLLGLDSTGSGEDLKNVFPPEVAVFEPSKAEIAHTQKATLVCLATGFYPDHVELSWWVNGKEVHSGVCTDPQPLKEQPALNDSRYCLSSRLRVSATFWQNPRNHFRCQVQFYGLSENDEWTQDRAKPVTQIVSAEAWGRADCGITSASYHQGVLSATILYEILLGKATLYAVLVSALVLMAMVKRKDSRGRAKRSGSGATNFSLLKQAGDVEENPGPTSMDWIWRILFLVGAATGAHSFEEVQLEESGGGLVQPGGSMKLSCVASGFTFSNYWMNWVRQSPEKGLEWVAEIRFKSHNYATHFAESVKGRFTISRDDSKSSVYLQMNNLRAEDTGIYYCTRRIGNSDYDWWYFDVWGAGTSVTVSSASTREQKLISEEDGSGTPFPSLAPPIMLLVDGKQQMVVVCLVLDVAPPGLDSPIWFSAGNGSALDAFTYGPSPATDGTWTNLAHLSLPSEELASWEPLVCHTGPGAEGHSRSTQPMHLSGEASTARTCPQEPLRGTPGGALWLGVLRLLLFKLLLFDLLLTCSCLCDPAGPLPSPATTTRLRALGSHRLHPATETGGREATSSPRPQPRDRRWGDTPPGRKPGSPVRAKRSGSGVKQTLNFDLLKLAGDVESNPGPSRGHMTEYKPTVRLATRDDVPRAVRTLAAAFADYPATRHTVDPDRHIERVTELQELFLTRVGLDIGKVWVADDGAAVAVWTTPESVEAGAVFAEIGPRMAELSGSRLAAQQQMEGLLAPHRPKEPAWFLATVGVSPDHQGKGLGSAVVLPGVEAAERAGVPAFLETSAPRNLPFYERLGFTVTADVEVPEGPRTWCMTRKPGA
modifications: Polynucleotide encoding a Synthetic Immune Receptor (SIR)
B6: 090116-J01 (protein)
chain: MALPVTALLLPLALLLHAARPLEGKPIPNPLLGLDSTGSGEDLKNVFPPEVAVFEPSKAEIAHTQKATLVCLATGFYPDHVELSWWVNGKEVHSGVCTDPQPLKEQPALNDSRYCLSSRLRVSATFWQNPRNHFRCQVQFYGLSENDEWTQDRAKPVTQIVSAEAWGRADCGITSASYHQGVLSATILYEILLGKATLYAVLVSALVLMAMVKRKDSRGRAKRSGSGATNFSLLKQAGDVEENPGPTSMALPVTALLLPLALLLHAARPDIQMTQSPASLSASVGETVTIICRASVNIYSYLAWYQQKQGKSPQLLVYNAKILAEGVPSRFSGSGSGTQFSLKINSLQPEDFGSYYCQHHYGTFTFGSGTKLEIKRGGGGSGGGGSGGGGSQVQLKESGPGLVAPSQSLSITCTISGFSLTSYGVHWVRQPPGKGLEWLVVIWSDGSTTYNSALKSRLSISKDNSKSQVFLKMNSLQTDDTAIYYCASHYGSTLAFASWGHGTLVTVSAATREQKLISEEDGSGIQNPDPAVYQLRDSKSSDKSVCLFTDFDSQTNVSQSKDSDVYITDKCVLDMRSMDFKSNSAVAWSNKSDFACANAFNNSIIPEDTFFPSSDVPCDVKLVEKSFETDTNLNFQNLSVIGFRILLLKVAGFNLLMTLRLWSSRAKRSGSGVKQTLNFDLLKLAGDVESNPGPSRGHMTEYKPTVRLATRDDVPRAVRTLAAAFADYPATRHTVDPDRHIERVTELQELFLTRVGLDIGKVWVADDGAAVAVWTTPESVEAGAVFAEIGPRMAELSGSRLAAQQQMEGLLAPHRPKEPAWFLATVGVSPDHQGKGLGSAVVLPGVEAAERAGVPAFLETSAPRNLPFYERLGFTVTADVEVPEGPRTWCMTRKPGA
modifications: Synthetic Immune Receptor (SIR)

Tested on: target antigen-expressing cell line
Assay: Jurkat NFAT-GFP assay, coculture with target cell lines expressing the respective target antigen (summary Table 10A)
Format: cell-based, human
Parameters: key: The signs +/−, +, 2+ etc. after the name of the cell lines indicate the relative degree of positivity on the Jurkat-NFAT-GFP assay as measured by the % GFP positive cells; +: relative degree of positivity on the Jurkat-NFAT-GFP assay as measured by the % GFP positive cells; 2+: relative degree of positivity on the Jurkat-NFAT-GFP assay as measured by the % GFP positive cells
In short: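 Readout is % GFP+ cells by FACS, graded +/− to 2+ relative to parental reporter cells. Jurkat-NFAT-GFP cells stably transduced with SIR constructs (puromycin-selected) were mixed with target-antigen-expressing cell lines at roughly 1:2 effector:target and cocultured ~4–18 h.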

| Molecule | NFAT-GFP ASSAY Positive Cell lines (coculture with RAJI cells) | NFAT-GFP ASSAY Positive Cell lines (coculture with NALM6 cells) |
| --- | --- | --- |
| B1 | RAJI (+) |  |
| B2 | RAJI (+) |  |
| B3 | RAJI (2+), NALM6 | (2+) |
| B4 | RAJI (2+), NALM6 | (2+) |
| B5 | RAJI (+/−) |  |
| B6 |  | (+) |

Source: patent US12269859B2, “Synthetic immune receptors and methods of use thereof” (Angeles Therapeutics, Inc., priority 2016, dated 2025)
